The text below walks through data of article PMC11065122 (Journal of the American Chemical Society, 2023).

The subject of one assay is PARP14^cat. Nature of the assay: PARP14cat mono-ADP-ribosylation of substrate peptides, RP-HPLC/MS. It counts as biochemical. Conditions: after PARP14^cat reaction condition optimization, NAD+, listed as MP^B.
The target in the next assay is MP^A E9ADPr1. As to the kind of experiment: fluorescence polarisation.
The next assay concerns the target MP^(A (E9D)) D9ADPr1. Nature of the assay: fluorescence polarisation. Background: Fluorescence polarisation rises when a labelled molecule tumbles more slowly, as on binding a larger partner.
The next assay has as its target MP^A S7ADPr1. As to the kind of experiment: fluorescence polarisation.
A further assay deals with MP^A R5ADPr1. As to the kind of experiment: fluorescence polarisation.

For the substance GWTARKSAEVGAGK [MP^A], the “conversion to mono-ADP-ribosylated product (ADPr1)” value with PARP14^cat is reported as “no activity was detected”.

Usually Kd stands for a measure of binding affinity in units of concentration. A higher Kd goes with lower affinity. For the substance “pan-ADP-ribose detection reagent (an Af1521 macrodomain-Fc region fusion) (Fc fusion)”, the Kd in the assay with MP^A E9ADPr1 came to 732 nM; with MP^(A (E9D)) D9ADPr1, 1810 nM; with MP^A S7ADPr1 it was 1170 nM; with MP^A R5ADPr1, 15.6 nM.
